Experimental data reported in publication PMC4432624, “Prdx4 is a compartment-specific H2O2 sensor that regulates neurogenesis by controlling surface expression of GDE2” (Nature Communications, 2015).

Molecular target: the molecule itself
Assay: western blot of Prdx4 dimers and monomers; primary motor neuron cultures treated with H2O2, Tempol or Edaravone; cells lysed with 100 mM maleimide; anti-mPrdx4 blot

B1: mouse Prdx4, endogenous in primary motor neuron cultures (enzyme, UniProt O08807 41-274, looked up)
chain: LESDERFRTRENECHFYAGGQVYPGEASRVSVADHSLHLSKAKISKPAPYWEGTAVINGEFKELKLTDYRGKYLVFFFYPLDFTFVCPTEIIAFGDRIEEFKSINTEVVACSVDSQFTHLAWINTPRRQGGLGPIRIPLLSDLNHQISKDYGVYLEDSGHTLRGLFIIDDKGVLRQITLNDLPVGRSVDETLRLVQAFQYTDKHGEVCPAGWKPGSETIIPDPAGKLKYFDKLN
notes: Peroxiredoxin 4 (Prdx4), mouse, endogenous; also called mPrdx4; source: endogenous, primary motor neuron cultures from E11.5 mouse spinal cords
stoichiometry N: 2
